Data set [1] concerns the molecule itself. The experiment in a line: SEC; topo VI co-expressed in E. coli and co-purified through His6-Top6B (Ni2+, SP/Q, TEV, Ni2+), then Sephacryl-300 HR gel filtration in 20 mM HEPES-KOH pH 7.5, 300 mM KCl, 10% glycerol; heterotetramer peak. A general note: SEC sorts molecules by how far they enter the pores of the column.
Data set [2] deals with the molecule itself. The experiment in a line: FRET or BRET; bulk FRET between Alexa555 and Alexa647 on Cys180 of the ATP gate; 200 nM topo II, 0 or 100 uM bp supercoiled DNA, 100 mM KCl, 10 mM Tris-HCl pH 7.9, 5 mM MgCl2, 0 or 1 mM AMPPNP. A general note: In BRET a luciferase serves as donor, and the signal depends on an acceptor being close.

B1: Methanosarcina mazei topoisomerase VI subunit A (Top6A) (enzyme)
chain: MEGEKGSKTRKGDALAREKLLEIAEKIYNQFEEEVVPSVSLPSRTKANLEYSDESDVWVYGDRESERSAKTVKGAFQLLKTTYATDFLINEHLARNRGSTLRELYYISEGWDYAKFKEQGESDRLIEDLEILTSLQREYFHMRPEEDGATMFGPIEITEQTKRGERNIHCQKDVGEGGYQIPFNVENIEFQKHDASMIIAIETGGMYARLMENGFDEAYNAILVHLKGQPARSTRRIIKRMNEELGIPVAVFTDGDPWSYRIYASVAYGAIKSAHLSEFMATPAAKFLGLQPSDIVEYELSTDKLTEQDVSALRSELSDPRFESDYWKEQIQLQLDIGKKAEQQAFAGKGLDFVTEVYLPNRLKEMGMI
notes: Top6A of Methanosarcina mazei topo VI; the Top6A gene cloned into a polycistronic expression vector (Corbett et al., 2007); Two Top6A and two Top6B form the A2B2 heterotetramer; also called MmTop6A; A subunit of topo VI
With B1, the binding result in data set [1] is reported as “binds”.

B2: S. cerevisiae topoisomerase II 1-1177 cyslite-180C, Alexa555/Alexa647-labeled (enzyme, Saccharomyces cerevisiae, UniProt P06786 1-1177, looked up)
chain: MSTEPVSASDKYQKISQLEHILKRPDTYIGSVETQEQLQWIYDEETDAMIEKNVTIVPGLFKIFDEILVNAADNKVRDPSMKRIDVNIHAEEHTIEVKNDGKGIPIEIHNKENIYIPEMIFGHLLTSSNYDDDEKKVTGGRNGYGAKLCNIFSTEFILETADLNVGQKYVQKWENNMSICHPPKITSYKKGPSYTKVTFKPDLTRFGMKELDNDILGVMRRRVYDINGSVRDINVYLNGKSLKIRNFKNYVELYLKSLEKKRQLDNGEDGAAKSDIPTILYERINNRWEVAFAVSDISFQQISFVNSIATTMGGTHVNYITDQIVKKISEILKKKKKKSVKSFQIKNNMFIFINCLIENPAFTSQTKEQLTTRVKDFGSRAEIPLEYINKIMKTDLATRMFEIADANEENALKKSDGTRKSRITNYPKLEDANKAGTKEGYKCTLVLTEGDSALSLAVAGLAVVGRDYYGAYPLRGKMLNVREASADQILKNAEIQAIKKIMGLQHRKKYEDTKSLRYGHLMIMTDQDHDGSHIKGLIINFLESSFPGLLDIQGFLLEFITPIIKVSITKPTKNTIAFYNMPDYEKWREEESHKFTWKQKYYKGLGTSLAQEVREYFSNLDRHLKIFHSLQGNDKDYIDLAFSKKKADDRKEWLRQYEPGTVLDPTLKEIPISDFINKELILFSLADNIRSIPNVLDGFKPGQRKVLYGCFKKNLKSELKVAQLAPYVSEATAYHHGEQSLAQTIIGLAQNFVGSNNIYLLLPNGAFGTRATGGKDAAAARYIYTELNKLTRKIFHPADDPLYKYIQEDEKTVEPEWYLPILPMILVNGAEGIGTGWSTYIPPFNPLEIIKNIRHLMNDEELEQMHPWFRGWTGTIEEIEPLRYRMYGRIEQIGDNVLEITELPARTWTSTIKEYLLLGLSGNDKIKPWIKDMEEQHDDNIKFIITLSPEEMAKTRKIGFYERFKLISPISLMNMVAFDPHGKIKKYNSVNEILSEFYYVRLEYYQKRKDHMSERLQWEVEKYSFQVKFIKMIIEKELTVTNKPRNAIIQELENLGFPRFNKEGKPYYGSPNDEIAEQINDVKGATSDEEDEESSHEDTENVINGPEELYGTYEYLLGMRIWSLTKERYQKLLKQKQEKETELENLLKLSAKDIWNTDLKAFEVGYQEFLQRDAEAR
modifications: Alexa Fluor 555 C2 maleimide or Alexa Fluor 647 C2 maleimide on the native cysteine 180
notes: Saccharomyces cerevisiae topoisomerase II, C-terminal truncation coding for residues 1-1177 (Schmidt et al., 2012), with four cysteines changed to alanine; also called ScTop2^ΔCTR-cyslite-180C; topo II; not shown: His6, N-terminal, cleaved
With B2, the binding result in data set [2] was “binds”.
